Results published in article doi:10.1101/2025.05.09.653011 (bioRxiv, 2025).

How the values were obtained:
[1] = target: Human wild-type peptidylprolyl cis-trans isomerase A (PPIA) (human, UniProt P62937 2-165); test: NMR titration
Human PPIA K76E mutant = Human PPIA K76E mutant (human, UniProt P62937 2-165, K76E); test: NMR titration
Sequence of Human PPIA K76E mutant (P62937 2-165 K76E): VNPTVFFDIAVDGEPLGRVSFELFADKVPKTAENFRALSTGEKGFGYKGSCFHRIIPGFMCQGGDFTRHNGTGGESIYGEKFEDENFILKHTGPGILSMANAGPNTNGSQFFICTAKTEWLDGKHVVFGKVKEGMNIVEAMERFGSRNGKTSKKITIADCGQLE

Sequence of Human wild-type peptidylprolyl cis-trans isomerase A (PPIA) (P62937 2-165): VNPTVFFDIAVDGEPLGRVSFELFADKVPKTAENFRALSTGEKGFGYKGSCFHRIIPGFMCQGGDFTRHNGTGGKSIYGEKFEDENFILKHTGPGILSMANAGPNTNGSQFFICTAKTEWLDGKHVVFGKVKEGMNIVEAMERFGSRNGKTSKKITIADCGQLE

- binding result [1]: binds
- binding result (Human PPIA K76E mutant): binds
Binder: Ac-FGPDLPAGD-NH2 [Ac-FGPDLPAGD-NH2]
